In patent US20140072613A1, “Compositions and Methods for Treating Cutaneous Scarring” (priority 2012, published 2014):

Columns and labels:
Test in all cases: biochemical
Assay type in all cases: biochemical
266 human kinases [1] = target: 266 human kinases (Homo sapiens, UniProt P00533); conditions: EGFR(h); 100 μM
In short: (§1)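 A filter-capture radiometric assay: phosphorylated cationic substrate binds an anionic membrane and is scintillation-counted, with values referenced to full-activity control.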

266 human kinases [2] = target: T1, 266 human kinases (Homo sapiens, UniProt P36896); conditions: ALK4(h); 100 μM
T1 sequence (P36896 24-505): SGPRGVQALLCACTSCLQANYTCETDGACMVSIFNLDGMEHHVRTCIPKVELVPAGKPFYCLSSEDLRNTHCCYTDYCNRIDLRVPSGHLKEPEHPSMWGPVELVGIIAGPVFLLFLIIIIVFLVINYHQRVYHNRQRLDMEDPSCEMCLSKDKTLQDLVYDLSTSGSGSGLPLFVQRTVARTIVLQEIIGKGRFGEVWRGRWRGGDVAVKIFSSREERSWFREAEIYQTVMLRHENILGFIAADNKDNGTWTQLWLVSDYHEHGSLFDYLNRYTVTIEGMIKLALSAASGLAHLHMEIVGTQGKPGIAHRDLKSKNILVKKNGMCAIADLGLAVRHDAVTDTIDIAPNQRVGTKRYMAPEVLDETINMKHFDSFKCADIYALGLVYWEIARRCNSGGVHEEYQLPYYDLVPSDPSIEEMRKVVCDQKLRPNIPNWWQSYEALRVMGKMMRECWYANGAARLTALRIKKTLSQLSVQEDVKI
In short: as §1

266 human kinases [3] = target: T2, 266 human kinases (Homo sapiens, UniProt P54760); conditions: EphB4(h); 100 μM
T2 sequence (P54760 16-987): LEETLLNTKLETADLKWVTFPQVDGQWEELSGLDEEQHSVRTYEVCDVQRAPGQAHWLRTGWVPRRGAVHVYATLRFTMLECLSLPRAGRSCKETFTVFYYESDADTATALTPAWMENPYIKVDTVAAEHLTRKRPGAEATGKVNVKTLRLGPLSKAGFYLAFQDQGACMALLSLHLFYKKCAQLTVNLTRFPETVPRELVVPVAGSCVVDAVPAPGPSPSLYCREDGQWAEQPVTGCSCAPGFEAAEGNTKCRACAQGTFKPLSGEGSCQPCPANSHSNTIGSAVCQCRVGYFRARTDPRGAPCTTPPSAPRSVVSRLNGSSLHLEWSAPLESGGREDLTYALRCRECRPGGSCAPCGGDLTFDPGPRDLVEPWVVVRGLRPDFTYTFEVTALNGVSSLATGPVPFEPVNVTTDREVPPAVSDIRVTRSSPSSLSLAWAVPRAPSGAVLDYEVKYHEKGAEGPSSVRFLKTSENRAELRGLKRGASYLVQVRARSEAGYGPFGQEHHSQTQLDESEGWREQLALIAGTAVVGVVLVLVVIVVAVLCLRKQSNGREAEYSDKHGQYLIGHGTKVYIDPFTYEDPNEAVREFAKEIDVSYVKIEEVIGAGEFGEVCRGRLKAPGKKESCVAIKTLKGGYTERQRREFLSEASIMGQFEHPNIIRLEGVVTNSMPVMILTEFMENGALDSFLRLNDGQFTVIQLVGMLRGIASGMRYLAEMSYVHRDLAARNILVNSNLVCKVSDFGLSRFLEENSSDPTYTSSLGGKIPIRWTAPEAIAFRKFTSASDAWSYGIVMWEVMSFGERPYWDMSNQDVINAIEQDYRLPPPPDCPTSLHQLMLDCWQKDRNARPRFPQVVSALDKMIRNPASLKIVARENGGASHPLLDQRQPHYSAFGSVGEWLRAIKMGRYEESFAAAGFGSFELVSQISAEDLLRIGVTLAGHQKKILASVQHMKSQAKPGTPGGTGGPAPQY
In short: as §1

266 human kinases [4] = target: T3, 266 human kinases (Homo sapiens, UniProt Q8TDC3); conditions: BrSK1(h); 100 μM
T3 sequence (Q8TDC3 1-778): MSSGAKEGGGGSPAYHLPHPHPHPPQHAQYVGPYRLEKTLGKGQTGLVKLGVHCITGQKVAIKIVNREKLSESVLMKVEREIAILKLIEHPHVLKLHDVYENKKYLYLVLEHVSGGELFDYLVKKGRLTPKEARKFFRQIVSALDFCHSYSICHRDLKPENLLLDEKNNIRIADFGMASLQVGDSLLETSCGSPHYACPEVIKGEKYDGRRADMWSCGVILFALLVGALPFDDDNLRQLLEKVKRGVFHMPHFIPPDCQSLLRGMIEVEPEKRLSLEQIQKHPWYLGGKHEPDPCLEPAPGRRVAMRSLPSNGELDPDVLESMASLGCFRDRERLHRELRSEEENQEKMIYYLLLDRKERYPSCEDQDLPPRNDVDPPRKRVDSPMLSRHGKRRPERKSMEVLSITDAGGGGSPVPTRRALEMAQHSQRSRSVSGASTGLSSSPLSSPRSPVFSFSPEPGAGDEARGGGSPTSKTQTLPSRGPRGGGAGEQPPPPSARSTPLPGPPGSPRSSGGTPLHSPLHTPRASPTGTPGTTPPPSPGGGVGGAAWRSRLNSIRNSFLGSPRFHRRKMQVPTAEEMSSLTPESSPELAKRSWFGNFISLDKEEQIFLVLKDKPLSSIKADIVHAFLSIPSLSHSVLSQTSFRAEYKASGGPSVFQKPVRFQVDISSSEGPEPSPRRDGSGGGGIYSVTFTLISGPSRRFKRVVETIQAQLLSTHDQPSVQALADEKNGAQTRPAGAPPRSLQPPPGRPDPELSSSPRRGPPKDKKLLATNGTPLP
In short: as §1

266 human kinases [5] = target: 266 human kinases (Homo sapiens, UniProt Q9BYP7); conditions: WNK3(h); 100 μM
In short: as §1

Sequence of 266 human kinases (Homo sapiens, UniProt Q9BYP7) (Q9BYP7 whole entry): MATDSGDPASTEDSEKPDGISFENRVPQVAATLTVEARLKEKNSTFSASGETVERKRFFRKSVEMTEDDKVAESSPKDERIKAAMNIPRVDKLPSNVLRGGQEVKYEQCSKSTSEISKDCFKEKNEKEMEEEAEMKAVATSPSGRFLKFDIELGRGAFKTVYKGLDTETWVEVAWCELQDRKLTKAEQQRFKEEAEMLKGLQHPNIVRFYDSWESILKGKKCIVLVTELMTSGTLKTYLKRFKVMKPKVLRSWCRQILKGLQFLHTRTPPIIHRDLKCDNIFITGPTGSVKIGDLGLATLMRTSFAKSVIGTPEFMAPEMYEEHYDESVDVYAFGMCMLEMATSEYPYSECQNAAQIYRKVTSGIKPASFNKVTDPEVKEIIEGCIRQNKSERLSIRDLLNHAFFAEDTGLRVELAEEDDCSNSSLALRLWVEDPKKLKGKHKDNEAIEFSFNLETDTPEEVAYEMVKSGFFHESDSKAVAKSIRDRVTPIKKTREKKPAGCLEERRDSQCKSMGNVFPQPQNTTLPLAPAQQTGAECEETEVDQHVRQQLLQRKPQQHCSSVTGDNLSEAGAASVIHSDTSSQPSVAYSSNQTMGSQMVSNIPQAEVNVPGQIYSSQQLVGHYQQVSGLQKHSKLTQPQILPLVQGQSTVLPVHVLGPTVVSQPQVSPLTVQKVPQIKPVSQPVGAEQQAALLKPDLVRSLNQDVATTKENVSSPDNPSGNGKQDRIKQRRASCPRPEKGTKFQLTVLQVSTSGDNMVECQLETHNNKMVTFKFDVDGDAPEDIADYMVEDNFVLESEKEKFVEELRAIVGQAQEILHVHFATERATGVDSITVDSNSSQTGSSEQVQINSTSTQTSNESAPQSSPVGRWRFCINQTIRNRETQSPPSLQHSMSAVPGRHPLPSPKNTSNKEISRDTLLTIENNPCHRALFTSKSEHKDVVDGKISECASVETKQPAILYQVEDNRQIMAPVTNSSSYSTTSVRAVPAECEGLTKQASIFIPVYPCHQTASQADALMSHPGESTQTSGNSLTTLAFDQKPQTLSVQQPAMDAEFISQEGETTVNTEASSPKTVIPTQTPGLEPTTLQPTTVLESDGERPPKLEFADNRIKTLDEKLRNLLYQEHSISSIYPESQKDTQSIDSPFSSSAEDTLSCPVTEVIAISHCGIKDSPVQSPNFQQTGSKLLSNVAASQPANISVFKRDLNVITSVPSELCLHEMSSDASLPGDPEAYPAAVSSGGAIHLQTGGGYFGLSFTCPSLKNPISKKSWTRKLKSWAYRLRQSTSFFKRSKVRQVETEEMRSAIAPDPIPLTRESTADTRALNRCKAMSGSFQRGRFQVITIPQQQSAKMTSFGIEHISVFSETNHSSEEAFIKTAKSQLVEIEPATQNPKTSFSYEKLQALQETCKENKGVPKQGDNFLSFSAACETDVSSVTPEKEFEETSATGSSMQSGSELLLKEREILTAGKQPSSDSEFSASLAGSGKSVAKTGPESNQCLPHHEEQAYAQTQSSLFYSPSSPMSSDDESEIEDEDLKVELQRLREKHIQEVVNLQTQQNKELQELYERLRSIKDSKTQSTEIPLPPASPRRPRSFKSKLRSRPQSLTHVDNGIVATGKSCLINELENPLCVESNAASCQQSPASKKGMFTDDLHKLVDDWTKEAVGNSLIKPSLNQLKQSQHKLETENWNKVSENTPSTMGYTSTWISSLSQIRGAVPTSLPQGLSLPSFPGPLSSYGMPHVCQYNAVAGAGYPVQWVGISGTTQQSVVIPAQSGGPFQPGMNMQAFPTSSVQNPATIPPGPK

Sequence | % activity (266 human kinases [1]) [%] | % activity (266 human kinases [2]) [%] | % activity (266 human kinases [3]) [%] | % activity (266 human kinases [4]) [%] | % activity (266 human kinases [5]) [%]
HRRIKAWLKKIKALARQLGVAA (mammal) [MMI-0500] | −1 | 81 | 38 | 72 | 9
YARAAARQARAKALNRQLGVA (mammal) [MMI-0200] | 83 | 152 | 131 | 93 | 97
